Measurements: patent publication US7662583B2, “Bioreactor containing cells expressing glycosyltransferase nucleic acids isolatable from Arabidopsis” (The University of York, priority 2003, dated 2010)

Assay: UGT enzyme reaction with quercetin (recombinant UGTs, HPLC)
Format: biochemical, Arabidopsis
Conditions: 0.5 mM quercetin, 5 mM UDP-glucose, 30° C.; for Specific activity (nkat/mg protein) 3-O-glc: quercetin glucosylated at 3-OH; for Specific activity (nkat/mg protein) 3′-O-glc: quercetin glucosylated at 3′-OH; for Specific activity (nkat/mg protein) 4′-O-glc: quercetin glucosylated at 4′-OH; for Specific activity (nkat/mg protein) 7-O-glc: quercetin glucosylated at 7-OH
Description: The assay mix (200 μl) contained 2 μg of recombinant protein, 100 mM Tris-HCl, pH 7.0, 5 mM UDP-glucose 1.4 mM 2-mercaptoethanol, and 0.5 mM of quercetin. The reaction was carried out at 30° C. for 1 h, and was quick-frozen and stored at −20° C. prior to the reverse-phase HPLC analysis
Reverse-phase HPLC (SpectraSYSTEM HPLC systems and UV6000LP Photodiode Array Detector, ThermoQuest) analysis was carried using a Columbus 5μ C18 column (250×4.60 mm, PHENOMENEX). Quercetin glucosides were separated from the aglycone by a linear gradient of 10-75% acetonitrile in H2O (all solution contained 0.1% trifluoroacetic acid) at 1 ml/mm over 20 mm and monitored at 370 nm. Cytokinin glucosides were separated from their aglycone by a liner gradient of 10-100% methanol in H2O (for N6-isopentenyladenine (iP), N6-benzyladenine and kinetin) or 10-60% methanol in H2O (for trans-zeatin and dihydrozeatin) at 1 ml/min over 20 mm. All solution contained 0.25% acetic acid and 0.04% triethylamine, trifluoroacetic acid. The separation was monitored at 206 nm and 252 nm. The identity of the products was confirmed by comparison with authentic gluco sides.
The activity of Arabidopsis recombinant UGTs towards quercetin was determined using the platform developed previously^15.

B1: UGT73B2: Arabidopsis recombinant glycosyltransferase (protein, UniProt Q94C57 1-483, looked up)
UDP-glucosyl transferase 73B2: MGSDHHHRKLHVMFFPFMAYGHMIPTLDMAKLFSSRGAKSTILTTSLNSKILQKPIDTFKNLNPGLEIDIQIFNFPCVELGLPEGCENVDFFTSNNNDDKNEMIVKFFFSTRFFKDQLEKLLGTTRPDCLIADMFFPWATEAAGKFNVPRLVFHGTGYFSLCAGYCIGVHKPQKRVASSSEPFVIPELPGNIVITEEQIIDGDGESDMGKFMTEVRESEVKSSGVVLNSFYELEHDYADFYKSCVQKRAWHIGPLSVYNRGFEEKAERGKKANIDEAECLKWLDSKKPNSVIYVSFGSVAFFKNEQLFEIAAGLEASGTSFIWVVRKTKDDREEWLPEGFEERVKGKGMIIRGWAPQVLILDHQATGGFVTHCGWNSLLEGVAAGLPMVTWPVGAEQFYNEKLVTQVLRTGVSVGASKHMKVMMGDFISREKVDKAVREVLAGEAAEERRRRAKKLAAMAKAAVEEGGSSFNDLNSFMEEFSS
- Specific activity (nkat/mg protein) 3-O-glc: 0.92 nkat/mg protein
- Specific activity (nkat/mg protein) 3′-O-glc: — (Activity lower than 0.02 nkat/mg protein has been considered as trace activity and is not shown in the Table.)
- Specific activity (nkat/mg protein) 4′-O-glc: — (Activity lower than 0.02 nkat/mg protein has been considered as trace activity and is not shown in the Table.)
- Specific activity (nkat/mg protein) 7-O-glc: — (Activity lower than 0.02 nkat/mg protein has been considered as trace activity and is not shown in the Table.)

B2: UGT71C5: Arabidopsis recombinant glycosyltransferase (protein, UniProt Q9FE68 1-480, looked up)
UDP-glycosyltransferase 71C5: MKTAELIFVPLPETGHLLSTIEFGKRLLNLDRRISMITILSMNLPYAPHADASLASLTASEPGIRIISLPEIHDPPPIKLLDTSSETYILDFIHKNIPCLRKTIQDLVSSSSSSGGGSSHVAGLILDFFCVGLIDIGREVNLPSYIFMTSNFGFLGVLQYLPERQRLTPSEFDESSGEEELHIPAFVNRVPAKVLPPGVFDKLSYGSLVKIGERLHEAKGILVNSFTQVEPYAAEHFSQGRDYPHVYPVGPVLNLTGRTNPGLASAQYKEMMKWLDEQPDSSVLFLCFGSMGVFPAPQITEIAHALELIGCRFIWAIRTNMAGDGDPQEPLPEGFVDRTMGRGIVCSWAPQVDILAHKATGGFVSHCGWNSVQESLWYGVPIATWPMYAEQQLNAFEMVKELGLAVEIRLDYVADGDRVTLEIVSADEIATAVRSLMDSDNPVRKKVIEKSSVARKAVGDGGSSTVATCNFIKDILGDHF
- Specific activity (nkat/mg protein) 3-O-glc: 0.33 nkat/mg protein
- Specific activity (nkat/mg protein) 3′-O-glc: — (Activity lower than 0.02 nkat/mg protein has been considered as trace activity and is not shown in the Table.)
- Specific activity (nkat/mg protein) 4′-O-glc: — (Activity lower than 0.02 nkat/mg protein has been considered as trace activity and is not shown in the Table.)
- Specific activity (nkat/mg protein) 7-O-glc: — (Activity lower than 0.02 nkat/mg protein has been considered as trace activity and is not shown in the Table.)

B3: UGT71B5: Arabidopsis recombinant glycosyltransferase (protein, UniProt O23382 1-478, looked up)
UDP-glycosyltransferase 71B5: MKIELVFIPLPGIGHLRPTVKLAKQLIGSENRLSITIIIIPSRFDAGDASACIASLTTLSQDDRLHYESISVAKQPPTSDPDPVPAQVYIEKQKTKVRDAVAARIVDPTRKLAGFVVDMFCSSMIDVANEFGVPCYMVYTSNATFLGTMLHVQQMYDQKKYDVSELENSVTELEFPSLTRPYPVKCLPHILTSKEWLPLSLAQARCFRKMKGILVNTVAELEPHALKMFNINGDDLPQVYPVGPVLHLENGNDDDEKQSEILRWLDEQPSKSVVFLCFGSLGGFTEEQTRETAVALDRSGQRFLWCLRHASPNIKTDRPRDYTNLEEVLPEGFLERTLDRGKVIGWAPQVAVLEKPAIGGFVTHCGWNSILESLWFGVPMVTWPLYAEQKVNAFEMVEELGLAVEIRKYLKGDLFAGEMETVTAEDIERAIRRVMEQDSDVRNNVKEMAEKCHFALMDGGSSKAALEKFIQDVIENMD
- Specific activity (nkat/mg protein) 3-O-glc: 0.26 nkat/mg protein
- Specific activity (nkat/mg protein) 3′-O-glc: — (Activity lower than 0.02 nkat/mg protein has been considered as trace activity and is not shown in the Table.)
- Specific activity (nkat/mg protein) 4′-O-glc: — (Activity lower than 0.02 nkat/mg protein has been considered as trace activity and is not shown in the Table.)
- Specific activity (nkat/mg protein) 7-O-glc: — (Activity lower than 0.02 nkat/mg protein has been considered as trace activity and is not shown in the Table.)

B4: UGT78D3: Arabidopsis recombinant glycosyltransferase, FIG. 6 (protein, UniProt Q9LFK0 1-459, looked up)
UDP-glycosyltransferase 78D3: MAKPSQPTRDSHVAVLVFPFGTHAAPLLAVTCRLATAAPSTVFSFFSTARSNSSLLSSDIPTNIRVHNVDDGVPEGFVLTGNPQHAVELFLEAAPEIFRREIKAAETEVGRKFKCILTDAFLWLAAETAAAEMKASWVAYYGGGATSLTAHLYTDAIRENVGVKEVGERMEETIGFISGMEKIRVKDTQEGVVFGNLDSVFSKTLHQMGLALPRATAVFINSFEELDPTFTNDFRSEFKRYLNIGPLALLSSPSQTSTLVHDPHGCLAWIEKRSTASVAYIAFGRVATPPPVELVAIAQGLESSKVPFVWSLQEMKMTHLPEGFLDRTREQGMVVPWAPQVELLNHEAMGVFVSHGGWNSVLESVSAGVPMICRPIFGDHAINARSVEAVWEIGVTISSGVFTKDGFEESLDRVLVQDDGKKMKVNAKKLEELAQEAVSTKGSSFENFGGLLDEVVNFG
- Specific activity (nkat/mg protein) 3-O-glc: 0.16 nkat/mg protein
- Specific activity (nkat/mg protein) 3′-O-glc: — (Activity lower than 0.02 nkat/mg protein has been considered as trace activity and is not shown in the Table.)
- Specific activity (nkat/mg protein) 4′-O-glc: — (Activity lower than 0.02 nkat/mg protein has been considered as trace activity and is not shown in the Table.)
- Specific activity (nkat/mg protein) 7-O-glc: — (Activity lower than 0.02 nkat/mg protein has been considered as trace activity and is not shown in the Table.)

B5: UGT78D1: Arabidopsis recombinant glycosyltransferase (protein, UniProt Q9S9P6 1-453, looked up)
Flavonol-3-O-rhamnosyltransfer …: MTKFSEPIRDSHVAVLAFFPVGAHAGPLLAVTRRLAAASPSTIFSFFNTARSNASLFSSDHPENIKVHDVSDGVPEGTMLGNPLEMVELFLEAAPRIFRSEIAAAEIEVGKKVTCMLTDAFFWFAADIAAELNATWVAFWAGGANSLCAHLYTDLIRETIGLKDVSMEETLGFIPGMENYRVKDIPEEVVFEDLDSVFPKALYQMSLALPRASAVFISSFEELEPTLNYNLRSKLKRFLNIAPLTLLSSTSEKEMRDPHGCFAWMGKRSAASVAYISFGTVMEPPPEELVAIAQGLESSKVPFVWSLKEKNMVHLPKGFLDRTREQGIVVPWAPQVELLKHEAMGVNVTHCGWNSVLESVSAGVPMIGRPILADNRLNGRAVEVVWKVGVMMDNGVFTKEGFEKCLNDVFVHDDGKTMKANAKKLKEKLQEDFSMKGSSLENFKILLDEIVKV
- Specific activity (nkat/mg protein) 3-O-glc: 0.24 nkat/mg protein
- Specific activity (nkat/mg protein) 3′-O-glc: — (Activity lower than 0.02 nkat/mg protein has been considered as trace activity and is not shown in the Table.)
- Specific activity (nkat/mg protein) 4′-O-glc: — (Activity lower than 0.02 nkat/mg protein has been considered as trace activity and is not shown in the Table.)
- Specific activity (nkat/mg protein) 7-O-glc: — (Activity lower than 0.02 nkat/mg protein has been considered as trace activity and is not shown in the Table.)

B6: UGT72B3: Arabidopsis recombinant glycosyltransferase (protein, UniProt Q9LNI1 1-481, looked up)
UDP-glycosyltransferase 72B3: MADGNTPHVAIIPSPGIGHLIPLVELAKRLLDNHGFTVTFIIPGDSPPSKAQRSVLNSLPSSIASVFLPPADLSDVPSTARIETRISLTVTRSNPALRELFGSLSAEKRLPAVLVVDLFGTDAFDVAAEFHVSPYIFYASNANVLTFLLHLPKLDETVSCEFRELTEPVIIPGCVPITGKDFVDPCQDRKDESYKWLLHNVKRFKEAEGILVNSFVDLEPNTIKIVQEPAPDKPPVYLIGPLVNSGSHDADVNDEYKCLNWLDNQPFGSVLYVSFGSGGTLTFEQFIELALGLAESGKRFLWVIRSPSGIASSSYFNPQSRNDPFSFLPQGFLDRTKEKGLVVGSWAPQAQILTHTSIGGFLTHCGWNSSLESIVNGVPLIAWPLYAEQKMNALLLVDVGAALRARLGEDGVVGREEVARVVKGLIEGEEGNAVRKKMKELKEGSVRVLRDDGFSTKSLNEVSLKWKAHQRKIDQEQESFL
- Specific activity (nkat/mg protein) 3-O-glc: 0.20 nkat/mg protein
- Specific activity (nkat/mg protein) 3′-O-glc: — (Activity lower than 0.02 nkat/mg protein has been considered as trace activity and is not shown in the Table.)
- Specific activity (nkat/mg protein) 4′-O-glc: — (Activity lower than 0.02 nkat/mg protein has been considered as trace activity and is not shown in the Table.)
- Specific activity (nkat/mg protein) 7-O-glc: — (Activity lower than 0.02 nkat/mg protein has been considered as trace activity and is not shown in the Table.)
